Data on three molecules can be found in publication PMC11490872, “Drug-resistant menin variants retain high binding affinity and interactions with MLL1” (The Journal of Biological Chemistry, 2024).

Read-outs that look alike come from different tables or passages of the source.

Holding throughout (format): binding
For test [1], the target named is T1, menin^WT bound to FLSN-MLL1^4-43 (Homo sapiens, UniProt O00255).
T1 construct: Full-length human menin was expressed in BL21(DE3) cells; thioredoxin-His6 (cleaved yes); made in house; host or cells: E. coli BL21(DE3); probe peptide from GenScript
T1 sequence (O00255 1-610): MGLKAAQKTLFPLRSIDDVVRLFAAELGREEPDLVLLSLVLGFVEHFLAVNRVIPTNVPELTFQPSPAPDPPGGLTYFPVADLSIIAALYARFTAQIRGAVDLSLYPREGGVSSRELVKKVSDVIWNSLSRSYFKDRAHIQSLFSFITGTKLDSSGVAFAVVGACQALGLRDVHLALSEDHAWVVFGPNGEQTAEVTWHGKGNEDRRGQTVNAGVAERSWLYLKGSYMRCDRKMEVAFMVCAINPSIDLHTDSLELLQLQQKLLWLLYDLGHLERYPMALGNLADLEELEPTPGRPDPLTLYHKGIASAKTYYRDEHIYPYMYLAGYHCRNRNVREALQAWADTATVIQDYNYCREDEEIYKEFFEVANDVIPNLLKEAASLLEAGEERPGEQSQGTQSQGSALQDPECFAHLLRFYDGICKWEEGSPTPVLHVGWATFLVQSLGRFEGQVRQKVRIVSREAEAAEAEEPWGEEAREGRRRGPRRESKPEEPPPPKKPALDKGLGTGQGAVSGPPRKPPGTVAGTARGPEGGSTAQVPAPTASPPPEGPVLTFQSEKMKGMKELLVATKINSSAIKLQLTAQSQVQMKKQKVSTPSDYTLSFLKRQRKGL
Kind of test: FP competition, displacement of FLSN-MLL1^4-43 from menin^WT. The procedure: (§1) FP competition experiments used FLSN-MLL1^4-43 at 4 nM and menin at 4 nM against varying concentrations of unlabeled MLL1 peptides in FP buffer for IC50 determination. Protein-peptide complexes were incubated for 1 h before unlabeled peptide competitors were added to ensure complete binding. Unlabeled peptide competitors were incubated with the protein-peptide complexes for 3 h before measurement using the PHERAstar microplate reader ([25]). Experiments with Revumenib were run with the same steps and conditions but used 5% DMSO in the final solution. Kd and IC50 values were calculated using GraphPad Prism 10 by plotting mP values measured for each protein/MLL1 peptide or Revumenib as a function of protein/MLL1 peptide (or Revumenib) concentration ([25]). All FP binding and competition experiments were run in triplicate.

The target of test [2] is T2, menin^G331R bound to FLSN-MLL1^4-43 (Homo sapiens, UniProt O00255, G326R).
T2 construct: The gene encoding full-length human menin was cloned into a pET32a expression vector; thioredoxin-His6 (cleaved yes); made in house; host or cells: E. coli BL21(DE3); probe peptide from GenScript
T2 sequence (O00255 1-610 G326R): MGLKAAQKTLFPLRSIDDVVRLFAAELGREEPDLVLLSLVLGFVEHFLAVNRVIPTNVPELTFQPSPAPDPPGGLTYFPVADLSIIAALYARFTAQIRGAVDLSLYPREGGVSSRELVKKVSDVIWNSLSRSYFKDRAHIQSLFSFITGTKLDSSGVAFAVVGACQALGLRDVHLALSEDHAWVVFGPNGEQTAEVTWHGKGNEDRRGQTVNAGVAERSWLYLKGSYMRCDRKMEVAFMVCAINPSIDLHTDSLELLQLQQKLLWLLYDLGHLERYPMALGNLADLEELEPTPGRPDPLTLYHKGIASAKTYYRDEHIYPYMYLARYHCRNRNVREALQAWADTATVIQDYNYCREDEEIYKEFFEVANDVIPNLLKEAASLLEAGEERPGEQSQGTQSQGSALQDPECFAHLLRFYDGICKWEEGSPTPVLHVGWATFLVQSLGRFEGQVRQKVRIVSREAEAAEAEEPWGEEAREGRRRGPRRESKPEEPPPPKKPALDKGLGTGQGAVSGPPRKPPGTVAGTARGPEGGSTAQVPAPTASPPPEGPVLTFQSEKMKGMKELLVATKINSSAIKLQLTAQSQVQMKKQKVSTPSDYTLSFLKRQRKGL
The experiment in a line: FP competition, displacement of FLSN-MLL1^4-43 from menin^G331R. As for the experimental part: as §1

Test [3] deals with T3, menin^T349M bound to FLSN-MLL1^4-43 (Homo sapiens, UniProt O00255, T344M).
T3 construct: The gene encoding full-length human menin was cloned into a pET32a expression vector; thioredoxin-His6 (cleaved yes); made in house; host or cells: E. coli BL21(DE3); probe peptide from GenScript
T3 sequence (O00255 1-610 T344M): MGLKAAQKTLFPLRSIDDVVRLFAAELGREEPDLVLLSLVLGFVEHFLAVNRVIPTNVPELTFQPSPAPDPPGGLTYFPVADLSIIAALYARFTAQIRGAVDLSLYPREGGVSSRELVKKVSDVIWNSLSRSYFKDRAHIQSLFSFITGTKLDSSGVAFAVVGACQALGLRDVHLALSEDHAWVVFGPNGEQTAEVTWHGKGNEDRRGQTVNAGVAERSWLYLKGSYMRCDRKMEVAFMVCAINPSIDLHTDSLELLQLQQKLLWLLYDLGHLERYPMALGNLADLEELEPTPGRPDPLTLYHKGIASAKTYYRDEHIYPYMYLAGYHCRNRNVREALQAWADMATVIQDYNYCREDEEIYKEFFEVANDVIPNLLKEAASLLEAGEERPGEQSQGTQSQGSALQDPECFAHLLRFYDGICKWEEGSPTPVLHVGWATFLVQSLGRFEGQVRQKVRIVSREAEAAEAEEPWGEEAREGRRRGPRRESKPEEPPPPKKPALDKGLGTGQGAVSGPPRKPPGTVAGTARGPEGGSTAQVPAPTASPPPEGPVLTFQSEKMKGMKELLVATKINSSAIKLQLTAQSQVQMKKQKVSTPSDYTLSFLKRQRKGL
Kind of test: FP competition, displacement of FLSN-MLL1^4-43 from menin^T349M. The procedure: as §1

Where [4] appears, read: FP competition with MLL1 fragments, 3 h incubation, N = 3, Fig. 3B, read-out: WT IC50.
[5] abbreviates: FP competition with MLL1 fragments, 3 h incubation, N = 3, Fig. 3B, read-out: G331R IC50.
Where [6] appears, read: FP competition with MLL1 fragments, 3 h incubation, N = 3, Fig. 3B, read-out: T349M IC50.

Regarding `CCN(C(=O)c1cc(F)ccc1Oc1cncnc1N1CC2(CCN(C[C@H]3CC[C@H](NS(=O)(=O)CC)CC3)CC2)C1)C(C)C` [Revumenib, reference compound], the IC50 is 5.7 nM in test [1] (FP competition, 5% DMSO, 3 h, N = 3, Fig. 4A, read-out: IC50 (nM), menin variant WT); 30 ± 2.5 nM in test [2] (FP competition, 5% DMSO, 3 h, N = 3, Fig. 4A, read-out: IC50 (nM), menin variant G331R); 125 ± 11 nM in test [3] (FP competition, 5% DMSO, 3 h, N = 3, Fig. 4A, read-out: IC50 (nM), menin variant T349M). Also, the “reduction of activity against G331R” value in test [2] (versus wild-type IC50) is reported as 5 fold.

With “MLL1^46: recombinant MLL1 fragment spanning amino acids 1–46, containing MBM1 and MBM2 (MAHSARWRFPARPGTTGGGGGGGRRGLGGAPRQRVPALLLPPGPPV; The printed 'Cys2' is Cys5 in the entry (peptide S4-A5-R6); Trx-His6 tag cl)”, the figures for the IC50 in test [1] (setting [4]), in test [2] (setting [5]) and in test [3] (setting [6]) were 1.6 ± 0.7 nM, 3.1 ± 0.7 nM and 1.9 ± 0.5 nM, respectively.

B1: MLL1^160: N-terminal 160 amino acids of human MLL1, Cys2 mutated to alanine, recombinant (protein)
chain: MAHSARWRFPARPGTTGGGGGGGRRGLGGAPRQRVPALLLPPGPPVGGGGPGAPPSPPAVAAAAAAAGSSGAGVPGGAAAASAASSSSASSSSSSSSSASSGPALLRVGPGFDAALQVSAAIGTNLRRFRAVFGESGGGGGSGEDEQFLGFGSDEEVRVR
modifications: The printed 'Cys2' is the single N-terminal cysteine, Cys5 in the entry (peptide S4-A5-R6); Trx-His6 tag cleaved
Turning to B1, the IC50 in test [1] (setting [4]) worked out at 4.1 ± 1.3 nM; in test [2] (setting [5]), 8 ± 0.5 nM; in test [3] (setting [6]), 4.4 ± 0.8 nM.
